Residue numbers refer to the chain shown, from its start. Names may count otherwise. Where two headings read alike, the source gives them in different places.

From US20220073646A1 (Hoffmann-La Roche, published 2022) come the findings set out here.

The target in assay [1] is T1, human fibroblast activation protein (huFAP) on cells (human, UniProt Q12884 1-760).
T1 construct: also called NIH/3T3-huFAP clone 39; NIH/3T3-huFAP clone 19
Kind of assay: flow cytometry, WM266-4.

The target of assay [2] is T2, murine FAP (His-tagged ectodomain) (mouse, UniProt P97321 27-761).
T2 construct: also called mu FAP
The assay is described as follows: SPR, FAP captured via anti-His, 1:1 fit, apparent KD (bivalent).
Protocol: (§1) The capacity of the bispecific constructs to bind human, murine and cynomolgus FAP was assessed by surface plasmon resonance (SPR). All SPR experiments were performed on a Biacore T200 (Biacore) at 25° C. with HBS-EP as running buffer (0.01 M HEPES pH 7.4, 0.15 M NaCl, 3 mM EDTA, 0.005% Surfactant P20, (Biacore).
(§2) Immobilization levels for the anti-His antibody of up to 18000 resonance units (RU) were used.
(§3) Following the capture step, the bispecific constructs as well as control molecules were immediately passed over the chip surface at a concentration ranging from 0.006-100 nM with a flow rate of 30 μL/minute for 280 s and a dissociation phase of 180 s. Bulk refractive index differences were corrected for by subtracting the response obtained in a reference flow cell, where no FAP was immobilized. Affinity was determined using the Langmuir 1:1 curve fitting. For bivalent binding the same 1:1 fitting was used leading to an apparent KD value.

Assay [3] addresses T3, human OX40 on cells (human, UniProt P43489 29-277).
T3 sequence: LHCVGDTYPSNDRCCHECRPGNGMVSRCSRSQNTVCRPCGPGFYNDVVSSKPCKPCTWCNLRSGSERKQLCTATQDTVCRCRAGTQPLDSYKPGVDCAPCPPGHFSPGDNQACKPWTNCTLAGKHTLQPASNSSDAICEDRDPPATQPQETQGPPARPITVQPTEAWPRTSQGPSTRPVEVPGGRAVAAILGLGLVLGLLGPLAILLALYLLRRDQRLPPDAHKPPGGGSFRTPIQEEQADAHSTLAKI
Kind of assay: cell-based or functional assay.

The target in assay [4] is T3, human OX40 on cells. The assay is described as follows: cell-based or functional assay. The source holds these as a separate data set.
For assay [5], the target named is T1, human fibroblast activation protein …. The assay is described as follows: flow cytometry, WM266-4 cells. In general terms: Flow cytometry measures light scatter and fluorescence of single cells or particles in a stream.
For assay [6], the target named is T4, recombinant human OX40 His (human).
T4 construct: ectodomain with avi and hexahistidine tag; also called human Ox40 avi His
T4 chain: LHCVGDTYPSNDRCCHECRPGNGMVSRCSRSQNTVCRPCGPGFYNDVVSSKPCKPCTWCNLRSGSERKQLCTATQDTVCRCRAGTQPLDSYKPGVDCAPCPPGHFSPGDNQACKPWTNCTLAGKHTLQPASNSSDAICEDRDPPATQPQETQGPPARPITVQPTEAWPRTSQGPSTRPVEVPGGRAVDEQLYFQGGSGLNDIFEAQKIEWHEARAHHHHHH
Kind of assay: SPR, captured IgG, OX40 His analyte.

The target in assay [7] is T5, recombinant human OX40 Fc(kih) (human, UniProt P0DOX5 223-449 = IgG part, biotin on C-terminal Avi tag where used biotinylated).
T5 construct: antigen Fc knob chain plus Fc hole chain; also called monomeric human OX40 antigen Fc(kih) fusion; biotinylated human OX40
The assay is described as follows: SPR, captured IgG, OX40 Fc(kih) analyte. For orientation: Surface plasmon resonance follows binding to a sensor surface in real time, without labels.
Protocol: (§4) All SPR experiments were performed on a Biacore T200 at 25° C. with HBS-EP as running buffer (0.01 M HEPES pH 7.4, 0.15 M NaCl, 3 mM EDTA, 0.005% Surfactant P20, Biacore, Freiburg/Germany).
Setup 1) Anti-human Fab antibody (Biacore, Freiburg/Germany) was directly coupled on a CM5 chip at pH 5.0 using the standard amine coupling kit (Biacore, Freiburg/Germany). The immobilization level was approximately 9000 RU. […] The dissociation was monitored for 120 seconds. Bulk refractive index differences were corrected for by subtracting the response obtained on reference flow cell.

The target of assay [8] is T3, human OX40 on cells. The assay is described as follows: flow cytometry, activated human CD4 T cells.
Protocol: Plates were centrifuged 4 minutes with 400×g and at 4° C. and supernatant was flicked off. Cell were washed once with 200 μL 4° C. cold FACS buffer (DPBS supplied with 2% FBS, 5 mM EDTA pH8 (Amresco, Cat. No. E177) and 7.5 mM Sodium azide (Sigma-Aldrich S2002)). […] Plates were washed four times with 200 μL/well 4° C. FACS buffer to remove unbound construct.
Plates where washed twice with 200 μL/well 4° C.
Assay [9] has as its target T3, human OX40 on cells. The assay is described as follows: flow cytometry, activated human CD4 T cells. This is another data set of the same source.
The target in assay [10] is recombinant cynomolgus OX40 Fc(kih) (cynomolgus, UniProt P0DOX5 223-449 = IgG part, biotin on C-terminal Avi tag where used biotinylated). The assay is described as follows: SPR, captured IgG, cyno OX40 Fc(kih) analyte.
Protocol: as §4
Anti-human Fab antibody (Biacore, Freiburg/Germany) was directly coupled on a CM5 chip at pH 5.0 using the standard amine coupling kit (Biacore, Freiburg/Germany). The immobilization level was approximately 9000 RU. […] The dissociation was monitored for 120 seconds. Bulk refractive index differences were corrected for by subtracting the response obtained on reference flow cell.
The target of assay [11] is T6, recombinant murine GITR Fc(kih) (murine, UniProt P0DOX5 223-449 = IgG part, biotin on C-terminal Avi tag).
T6 construct: also called mu GITR-Fc
Kind of assay: SPR Biacore T200.
Protocol: All SPR experiments were performed on a Biacore T200 at 25° C. with HBS-EP as running buffer (0.01 M HEPES pH 7.4, 0.15 M NaCl, 3 mM EDTA, 0.005% Surfactant P20, Biacore, Freiburg/Germany). In the same experiment, the species selectivity and the avidity of the interaction between the GITR binder (human IgG1 P329GLALA), and recombinant GITR (human, cyno and murine) was determined. […] Immobilization levels up to 100 resonance units (RU) were used.
Anti-GITR human IgG1 P329GLALA antibody was passed at a concentration range from 0.2 to 200 nM (4-fold dilution) with a flow of 30 μL/minute through the flow cells over 120 seconds. Complex dissociation was monitored for 180 seconds. Bulk refractive index differences were corrected for by subtracting the response obtained in a reference flow cell, where no protein was immobilized.

Assay [12] concerns the target T7, recombinant human GITR Fc(kih) (human, UniProt P0DOX5 223-449 = IgG part, biotin on C-terminal Avi tag where used biotinylated).
T7 construct: also called hu GITR-Fc; human monomeric GITR-Fc fusion
The assay is described as follows: SPR, captured IgG, GITR Fc(kih) analyte.
Protocol: (§5) In the same experiment, the affinities of the interaction between the GITR antibody (human IgG1 P329GLALA) to recombinant GITR (human and cyno) were determined. Anti-human Fab antibody (Biacore, Freiburg/Germany) was directly coupled on a CM5 chip at pH 5.0 using the standard amine coupling kit (Biacore, Freiburg/Germany). The immobilization level was approximately 7000 RU. The GITR antibody was captured for 90 seconds at 5 nM. […] The dissociation was monitored for 180 seconds. Bulk refractive index differences were corrected for by subtracting the response obtained on reference flow cell.

Assay [13] concerns the target T8, recombinant cynomolgus GITR Fc(kih) (cynomolgus, UniProt P0DOX5 223-449 = IgG part, biotin on C-terminal Avi tag where used biotinylated).
T8 construct: also called cy GITR-Fc
Kind of assay: SPR, captured IgG, GITR Fc(kih) analyte.
Protocol: as §5

Assay [14] addresses T9, mouse 4-1BB on activated mouse splenocytes (mouse, UniProt P20334 24-256). Kind of assay: flow cytometry, activated murine CD4 T cells.
Protocol: (§6) Cells were incubated for 30 min at 4° C., washed twice with 200 μL/well FACS-buffer and resuspended for fixation with 50 μL/well DPBS containing 1% (v/v) formaldehyde. The next day cells were resuspended in 200 μL/well FACS buffer and acquired using the 2-laser Cantoll (BD Bioscience with DIVA software) or 5-laser Fortessa (BD Bioscience with DIVA software). Gates were set on CD8⁺ and CD4⁺ T cells and the median fluorescence intensity (MFI) of the secondary detection antibody was used to analyze binding of primary antibodies. Using Graph Pad Prism (Graph Pad Software Inc.) data was baselined by subtracting the blank values (no primary antibody added) and the EC₅₀ values were calculated using non-linear regression curve fit (robust fit).
For assay [15], the target named is T9, mouse 4-1BB on activated mouse …. The assay is described as follows: flow cytometry, activated murine CD8 T cells.
Protocol: as §6
Assay [16] has as its target T1, human fibroblast activation protein …. The assay is described as follows: flow cytometry, WM266-4. The source holds these as a separate data set.
Protocol: In some assays WM266-4 cells were pre-labeled with PKH-26 Red Fluorescence Cell linker Kit (Sigma, Cat.-No. PKH26GL) as described in Example 2.3.2 to allow separation of these tumor cells from other cells present (e.g. human PBMC).
Plates were centrifuged 4 minutes, 400×g at 4° C. and supernatants were flicked off. Cells were washed once with 200 μL DPBS and pellets were resuspended by a short and gentle vortex. All samples were resuspended in 50 μL/well of 4° C. cold FACS buffer containing the bispecific antigen binding molecules (primary antibody) at the indicated range of concentrations (titrated) and incubated for 120 minutes at 4° C. Afterwards the cells were washed four times with 200 μL 4° C.
Assay [17] addresses T10, human FAP (His-tagged ectodomain) (human, UniProt Q12884 27-760).
T10 construct: SPR texts say 'human FAP' or 'His-tagged ... dimeric FAP'; also called hu FAP; human FAP (analyte 2)
The assay is described as follows: SPR, FAP captured via anti-His, 1:1 fit.
Protocol: as §1, §2, §3

Assay [18] has as its target T2, murine FAP (His-tagged ectodomain). Kind of assay: SPR, FAP captured via anti-His, 1:1 fit.
Protocol: as §1, §2, §3
Assay [19] addresses T11, cynomolgus FAP (His-tagged ectodomain) (cynomolgus, UniProt Q12884 27-760 (human entry)).
T11 construct: also called cynoFAP
Kind of assay: SPR, FAP captured via anti-His, 1:1 fit.
Protocol: as §1, §2, §3

Assay [20] deals with T10, human FAP (His-tagged ectodomain). The assay is described as follows: SPR, FAP captured via anti-His, 1:1 fit, apparent KD (bivalent).
Protocol: as §1, §2, §3

T9 sequence (P20334 24-256 limits assumed): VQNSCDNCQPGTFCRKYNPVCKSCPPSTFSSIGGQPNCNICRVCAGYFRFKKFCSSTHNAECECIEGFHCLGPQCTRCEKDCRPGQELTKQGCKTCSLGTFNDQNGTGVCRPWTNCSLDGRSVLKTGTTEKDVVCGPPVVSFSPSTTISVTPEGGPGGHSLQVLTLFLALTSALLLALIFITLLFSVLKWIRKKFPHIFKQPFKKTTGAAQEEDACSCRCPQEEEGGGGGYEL

B1: OX40(49B4)/FAP(28H1) P329GLALA IgG1 4+2 (bispecific antibody)
heavy: not shown
light 1: DIQMTQSPSTLSASVGDRVTITCRASQSISSWLAWYQQKPGKAPKLLIYDASSLESGVPSRFSGSGSGTEFTLTISSLQPDDFATYYCQQYSSQPYTFGQGTKVEIKRTVAAPSVFIFPPSDRKLKSGTASVVCLLNNFYPREAKVQWKVDNALQSGNSQESVTEQDSKDSTYSLSSTLTLSKADYEKHKVYACEVTHQGLSSPVTKSFNRGEC
light 2: EVQLLESGGGLVQPGGSLRLSCAASGFTFSSHAMSWVRQAPGKGLEWVSAIWASGEQYYADSVKGRFTISRDNSKNTLYLQMNSLRAEDTAVYYCAKGWLGNFDYWGQGTLVTVSSASVAAPSVFIFPPSDEQLKSGTASVVCLLNNFYPREAKVQWKVDNALQSGNSQESVTEQDSKDSTYSLSSTLTLSKADYEKHKVYACEVTHQGLSSPVTKSFNRGEC
notes: also called 4+2 (49B4/28H1)
With B1, the EC50 – broadly, the concentration needed to bring the measured effect to its halfway point – in assay [1] came out at 5.51 nM. In addition, in [2], the Kd came out at 0.00441 nM.

B2: 8H9 P329GLALA IgG1 (antibody, V domains shown)
VH: QVQLVQSGAEVKKPGSSVKVSCKASGGTFSSYAISWVRQAPGQGLEWMGGIIPIFGTANYAQKFQGRVTITADKSTSTAYMELSSLRSEDTAVYYCAREYGWMDYWGQGTTVTVSS
VL: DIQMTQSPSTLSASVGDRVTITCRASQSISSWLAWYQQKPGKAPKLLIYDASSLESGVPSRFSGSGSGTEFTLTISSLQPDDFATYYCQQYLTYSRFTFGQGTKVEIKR
notes: anti-OX40; also called clone 8H9 hu IgG1
For the molecule B2, the “EC50 of NFκB activation in HeLa_hOx40_NFκB_luc1 reporter cells with secondary anti-human IgG Fcγ antibody” value with human OX40 on cells [3] was determined as 0.66 nM. In the assay with human OX40 on cells [4], the “EC50 of rescuing suboptimal TCR stimulation with plate-immobilized anti-OX40 binder (preactivated human CD4 T cells)” value is 0.003 nM. The binding result in assay [5] was “no binding”. Besides, the Kd in [6] turned out to be 31 nM; in [7], 28 nM; in assay [10], 670 nM. The koff (in general, the first-order rate constant of dissociation) was determined as 0.002 s⁻¹ in assay [6], 0.0045 s⁻¹ in assay [7] and 0.096 s⁻¹ in assay [10]. Besides, the results for the kon in assay [6], in assay [7] and in assay [10] were 65000 M⁻¹ s⁻¹, 160000 M⁻¹ s⁻¹ and 140000 M⁻¹ s⁻¹, respectively. Besides, the EC50 with human OX40 on cells [8] and in the assay with human OX40 on cells [9] was 0.59 nM each time.

B3: 8A06 P329GLALA IgG1 (antibody, V domains shown)
VH: B2 VH with E99G, G101Y, W102A, M103I
VL: SSELTQDPAVSVALGQTVRITCQGDSLRSYYASWYQQKPGQAPVLVIYGKNNRPSGIPDRFSGSSSGNTASLTITGAQAEDEADYYCNSPQTSGSAVFGGGTKLTVLG
notes: also called anti-GITR 8A06 IgG
On to B3, for which, in assay [11], the binding result is “no binding (tested: 0.2 to 200 nM IgG)”. The Kd in assay [12] is 29 nM; in assay [13] it was 1200 nM.

B4: 20G2 mu IgG1 κ DAPG (antibody, V domains shown)
VH: QVQLVQSGAEVKKPGSSVKVSCKASGGTFSSYAISWVRQAPGQGLEWMGGIIPIFGTANYAQKFQGRVTITADKSTSTAYMELSSLRSEDTAVYYCARSYYWESYPFDYWGQGTTVTVSS
VL: DIQMTQSPSTLSASVGDRVTITCRASQSISSWLAWYQQKPGKAPKLLIYDASSLESGVPSRFSGSGSGTEFTLTISSLQPDDFATYYCQQQHSYYTFGQGTKVEIK
notes: mouse IgG1 kappa with DAPG mutations; also called 20G2 mouse IgG1 DAPG
Consider B4, for which the EC50 in assay [14] amounted to 11.2 nM; in [15], 17.9 nM.

B5: 20G2 mu IgG1 κ wt (antibody, V domains shown)
VH: B4 VH
VL: B4 VL
notes: mouse IgG1 kappa wild type; also called 20G2 mouse IgG1 wildtype
Regarding B5, the EC50 in assay [14] was determined as 9.92 nM; in [15], 18.5 nM.

B6: 8H9/FAP P329GLALA IgG1 2+2 (bispecific antibody)
heavy: not shown
light 1: not shown
light 2: EIVLTQSPGTLSLSPGERATLSCRASQSVSRSYLAWYQQKPGQAPRLLIIGASTRATGIPDRFSGSGSGTDFTLTISRLEPEDFAVYYCQQGQVIPPTFGQGTKVEIKSSASTKGPSVFPLAPSSKSTSGGTAALGCLVKDYFPEPVTVSWNSGALTSGVHTFPAVLQSSGLYSLSSVVTVPSSSLGTQTYICNVNHKPSNTKVDKKVEPKSCD
notes: also called bispecific bivalent 2+2 construct 8H9; 8H9 FAP 2+2
On to B6, for which the EC50 in [16] is 2.88 nM; with human OX40 on cells [9] it was 0.93 nM.

B7: 6C8 P329GLALA IgG1 (antibody, V domains shown)
VH: QVTLRESGPALVKPTQTLTLTCTFSGFSLSTSGMGVGWIRQPPGKALEWLAHIWWDDDKYYQPSLKSRLTISKDTSKNQVVLTMTNMDPVDTATYYCARTRRYFPFAYWGQGTLVTVSS
VL: EIVMTQSPATLSVSPGERATLSCKASQNVGTNVAWYQQKPGQAPRLLIYSASYRYSGIPARFSGSGSGTEFTLTISSLQSEDFAVYYCQQYNTDPLTFGGGTKVEIKR
notes: prepared according to WO 2006/105021; also called benchmark antibody 6C8
For the molecule B7, the binding result in assay [11] was “no binding (tested: 0.2 to 200 nM IgG)”. In assay [12], the Kd was determined as 30 nM; the koff worked out at 0.0011 s⁻¹; the kon (in general, a measure of how fast the partners come together) came to 38000 M⁻¹ s⁻¹. For the same molecule, in [13], the Kd came to 190 nM, the koff is 0.014 s⁻¹ and the kon worked out at 73000 M⁻¹ s⁻¹.

B8: OX40(49B4)/FAP(4B9) P329GLALA IgG1 1+1 (bispecific antibody, V domains shown)
VH 1: QVQLVQSGAEVKKPGSSVKVSCKASGGTFSSYAISWVRQAPGQGLEWMGGIIPIFGTANYAQKFQGRVTITADKSTSTAYMELSSLRSEDTAVYYCAREYYRGPYDYWGQGTTVTVSS
VL 1: DIQMTQSPSTLSASVGDRVTITCRASQSISSWLAWYQQKPGKAPKLLIYDASSLESGVPSRFSGSGSGTEFTLTISSLQPDDFATYYCQQYSSQPYTFGQGTKVEIK
VH 2: EVQLLESGGGLVQPGGSLRLSCAASGFTFSSYAMSWVRQAPGKGLEWVSAIIGSGASTYYADSVKGRFTISRDNSKNTLYLQMNSLRAEDTAVYYCAKGWFGGFNYWGQGTLVTVSS
VL 2: EIVLTQSPGTLSLSPGERATLSCRASQSVTSSYLAWYQQKPGQAPRLLINVGSRRATGIPDRFSGSGSGTDFTLTISRLEPEDFAVYYCQQGIMLPPTFGQGTKVEIK
notes: only variable domains of 49B4 and 4B9; human IgG1 P329G LALA
Take B8: the results for the Kd in assay [17], in [18] and in [19] were 0.752 nM, 4.79 nM and 0.532 nM, respectively.

B9: 28H1 IgG (antibody, V domains shown)
VH: EVQLLESGGGLVQPGGSLRLSCAASGFTFSSHAMSWVRQAPGKGLEWVSAIWASGEQYYADSVKGRFTISRDNSKNTLYLQMNSLRAEDTAVYYCAKGWLGNFDYWGQGTLVTVSS
VL: B8 VL 2 with T30S, S31R, N50I, V51G, G52A, R54T, I93Q, M94V, L95I
notes: anti-FAP control IgG
Take B9: the Kd in assay [20] came out at 0.933 nM; in assay [2], 0.00049 nM.
